We go through one protein from article PMC8231724, “A Glycolipid Glycosyltransferase with Broad Substrate Specificity from the Marine Bacterium “Candidatus Pelagibacter sp.” Strain HTCC7211” (Applied and Environmental Microbiology, 2021).

Assay in all cases: LC-MS of glycolipid product, Hanes-Woolf plot
Type in all cases: biochemical, Candidatus Pelagibacter sp. HTCC7211
What all share (details): acceptor C16:0/C18:1 DAG, no added Mg2+, Tricine-KOH pH 8.5, 35 °C, 2 mM DTT

Substrate in series [1]: O=c1ccn([C@@H]2O[C@H](COP(=O)(O)OP(=O)(O)O[C@H]3O[C@H](CO)[C@H](O)[C@H](O)[C@H]3O)[C@@H](O)[C@H]2O)c(=O)[nH]1
An excerpt:
(§1) LC-MS of glycolipid product, Hanes-Woolf plot on GTcp

Substrate in series [2]: O=c1ccn([C@@H]2O[C@H](CO[P@@](=O)(O)O[P@@](=O)(O)O[C@H]3O[C@H](CO)[C@@H](O)[C@H](O)[C@H]3O)[C@@H](O)[C@H]2O)c(=O)[nH]1
Excerpt: as §1

Substrate in series [3]: O=C(O)[C@H]1O[C@H](OP(=O)(O)OP(=O)(O)OC[C@H]2O[C@@H](n3ccc(=O)[nH]c3=O)[C@H](O)[C@@H]2O)[C@H](O)[C@@H](O)[C@@H]1O
Excerpt: as §1

B1: GTcp (Candidatus Pelagibacter sp. HTCC7211) (protein)
chain: MKILIVTDAYYPQVNGVVRTLHETGEILKSQGHTIEYITPQQFLTVPMPKYNEIRLSLNVWPRVSNLINSIKPDAIHIATEGPLGFMARRHCIKKGLKFTTSFHTRFDKYIKLYMPIIPAKWSEKFLCNFHNKAERILVTTESMREELIALGVDNNKMVTWTRGGNHGAFKNPVKRDLPYKRPIWIYVGRVAVEKNIKAFLDLDLEGTKVIIGKGPNLNKLKKKYPNDYFLGEKTNGELASHFASSDVFVFPSKTDTFGIVVLESLSCGTPVAAYPVPGPKDILGGSKIDTLDQDLKTSALKALKVNREDCLEFAKKYSWEETARIFYNNISPN
notes: full length, 334 aa (1,005 bp), codon-optimised synthetic gene in pET22b, His-tagged, E. coli BL21-CodonPlus(DE3)-RIL, Ni-NTA and Superdex 200, 38 kDa monomer, about 70 kDa dimer
Turning to B1, the Km in series [1] is 32 ± 0.4 µM; in series [2], 82 ± 0.3 µM; in series [3] it was 68 ± 0.5 µM. The kcat in series [1] was 0.0172 ± 0.005 s⁻¹; in series [2] it was 0.0975 ± 0.00667 s⁻¹; in series [3], 0.0675 ± 0.00167 s⁻¹. Further, the results for the catalytic efficiency (kcat/Km) in series [1], in series [2] and in series [3] were 537 ± 48.3 M⁻¹ s⁻¹, 1190 ± 45 M⁻¹ s⁻¹ and 993 ± 60 M⁻¹ s⁻¹, respectively.

As usually defined, the Km is the substrate concentration at which the rate is half of its maximum. By kcat is commonly meant the maximal rate divided by the concentration of active sites. As a reminder, the kcat/Km is the turnover number divided by the Michaelis constant.
